Patent US20240060126

Assays:
[1] = target: MspA-((Del-L74/G75/D118/L119)D56F/E59R/L88N/D90N/D91N/Q126R/D134R/E139K)8
[2] = target: MspA-((Del-L74/G75/D118/L119)G1A/D56N/E59F/L88N/D90N/D91N/Q126R/D134R/E139K)8

B1: T4 Dda-E94C/C109A/C136A/K199L/A360C (protein)
chain: MTFDDLTEGQKNAFNIVMKAIKEKKHHVTINGPAGTGKTTLTKFIIEALISTGETGIILAAPTHAAKKILSKLSGKEASTIHSILKINPVTYECNVLFEQKEVPDLAKARVLICDEVSMYDRKLFKILLSTIPPWATIIGIGDNKQIRPVDPGENTAYISPFFTHKDFYQCELTEVKRSNAPIIDVATDVRNGKWIYDLVVDGHGVRGFTGDTALRDFMVNYFSIVKSLDDLFENRVMAFTNKSVDKLNSIIRKKIFETDKDFIVGEIIVMQEPLFKTYKIDGKPVSEIIFNNGQLVRIIEAEYTSTFVKARGVPGEYLIRHWDLTVETYGDDEYYREKIKIISSDEELYKFNLFLGKTCETYKNWNKGGKAPWSDFWDAKSQFSKVKALPASTFHKAQGMSVDRAFIYTPCIHYADVELAQQLLYVGVTRGRYDVFYV
In the case of B1, the “slips forward per kilobase” value [1] is reported as “less than 5 slips forward per kilobase”, the “% bases missed in construct X” value [2] is reported as “the lowest % bases missed in construct X” and the “slips forward per kilobase” value [2] is reported as “less than 5 slips forward per kilobase”.
